How the values were obtained:
[1] = target: T1, single chain CD94/NKG2A-Fc (CD94/NKG2A-IgG1 fusion polypeptide); experiment: ELISA; FIG. 27
[2] = target: T1, single chain CD94/NKG2A-Fc …; experiment: competitive ELISA (HLA-E tetramer)
[3] = target: T1, single chain CD94/NKG2A-Fc …; experiment: BLI
[4] = target: T1, single chain CD94/NKG2A-Fc …; experiment: competitive ELISA (HLA-E tetramer); FIG. 26

T1 sequence (chain, as listed by the source): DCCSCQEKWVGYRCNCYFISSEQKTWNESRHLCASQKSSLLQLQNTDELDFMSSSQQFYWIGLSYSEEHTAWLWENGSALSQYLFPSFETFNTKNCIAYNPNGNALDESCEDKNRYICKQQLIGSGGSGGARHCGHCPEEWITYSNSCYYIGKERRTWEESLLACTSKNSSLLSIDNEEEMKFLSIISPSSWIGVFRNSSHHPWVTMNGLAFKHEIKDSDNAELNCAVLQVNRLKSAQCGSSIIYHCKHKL

EC50 [1] [nM]	IC50 [2] [nM]	Kd [3] [nM]	IC50 [4] [nM]	Binder
0.64	1.4	–	–	IgG Clone #2 (1B2-6, IgG1-LALA-PG) (antibody, V domains shown) VH: EVQLVESGGGLVKPGGSLRLSCAASGFTFSGYYMSWIRQAPGKGLEWLAYISNSGRTIYYADSVKGRFTISRDNSNSSLYLQMNSLRAEDTAVYYCARGFYMDAWGKGTTVTVSS VL: DIQMTQSPSSLSASVGDRVTITCRASQSISSYLNWYQQKPGKAPKLLIYAASSLQSGVPSRFSGSGSGTDFTLTISSLQPEDFGVYYCQYYGISPPFTFGPGTKVDIKR
1.6	9.6	1.14	20	IgG Clone #1 (1B2, IgG1-LALA-PG) (antibody, V domains shown) VH: QVQLVESGGGLVKPGGSLRLSCAASGFTFSDYYMSWIRQAPGKGLEWVSYISSSGSTIYYADSVKGRFTISRDNAKNSLYLQMNSLRAEDTAVYYCARGFYMDAWGKGTTVTVSS VL: DIQMTQSPSSLSASVGDRVTITCRASQSISSYLNWYQQKPGKAPKLLIYAASSLQSGVPSRFSGSGSGTDFTLTISSLQPEDFGVYYCQYYGISPPFTFGPGTKVDIKR
